Data published in patent US20090156489A1 (Genentech, published 2009).

B1: human Netrin-G1-his (purified Netrin-G1 protein with a C-terminus His tag) (receptor, UniProt Q9Y2I2-1 29-409, looked up, not shown: small tags and cut ends)
chain: HYDLCKTQIYTEEGKVWDYMACQPESTDMTKYLKVKLDPPDITCGDPPETFCAMGNPYMCNNECDASTPELAHPPELMFDFEGRHPSTFWQSATWKEYPKPLQVNITLSWSKTIELTDNIVITFESGRPDQMILEKSLDYGRTWQPYQYYATDCLDAFHMDPKSVKDLSQHTVLEIICTEEYSTGYTTNSKIIHFEIKDRFAFFAGPRLRNMASLYGQLDTTKKLRDFFTVTDLRIRLLRPAVGEIFVDELHLARYFYAISDIKVRGRCKCNLHATVCVYDNSKLTCECEHNTTGPDCGKCKKNYQGRPWSPGSYLPIPKGTANTCIPSISSIGTNVCDNELLHCQNGGTCHNNVRCLCPAAYTGILCEKLRCEEAGSCGS
notes: Used purified in the pull-down and as a crude preparation (1 ug/ml) for coating in the solid phase assay; also called NetrinG-his
B2: human NGL-1-Fc (extracellular domain of human NGL-1 fused to human IgG1 Fc) (Fc fusion)
chain: QTCPSVCSCSNQFSKVICVRKNLREVPDGISTNTRLLNLHENQIQIIKVNSFKHLRHLEILQLSRNHIRTIEIGAFNGLANLNTLELFDNRLTTIPNGAFVYLSKLKELWLRNNPIESIPSYAFNRIPSLRRLDLGELKRLSYISEGAFEGLSNLRYLNLAMCNLREIPNLTPLIKLDELDLSGNHLSAIRPGSFQGLMHLQKLWMIQSQIQVIERNAFDNLQSLVEINLAHNNLTLLPHDLFTPLHHLERIHLHHNPWNCNCDILWLSWWIKDMAPSNTACCARCNTPPNLKGRYIGELDQNYFTCYAPVIVEPPADLNVTEGMAAELKCRASTSLTSVSWITPNGTVMTHGAYKVRIAVLSDGTLNFTNVTVQDTGMYTCMVSNSVGNTTASATLNVTAATTTPFSYFSTVTVETMEPSQDEARTTDNNVGPTPVVDWETTNVTTSLTPQSTRSTEKTFTIPVTDINSGIPGIDEVMKTTK
notes: also called NGL-1-ECD IgG Fc fusion protein; PRO331 ECD-Fc; not shown: human IgG1 Fc region
B3: recombinant human cMet-Fc fusion protein (R&D Systems) (Fc fusion)
chain: ECKEALAKSEMNVNMKYQLPNFTAETPIQNVILHEHHIFLGATNYIYVLNEEDLQKVAEYKTGPVLEHPDCFPCQDCSSKANLSGGVWKDNINMALVVDTYYDDQLISCGSVNRGTCQRHVFPHNHTADIQSEVHCIFSPQIEEPSQCPDCVVSALGAKVLSSVKDRFINFFVGNTINSSYFPDHPLHSISVRRLKETKDGFMFLTDQSYIDVLPEFRDSYPIKYVHAFESNNFIYFLTVQRETLDAQTFHTRIIRFCSINSGLHSYMEMPLECILTEKRKKRSTKKEVFNILQAAYVSKPGAQLARQIGASLNDDILFGVFAQSKPDSAEPMDRSAMCAFPIKYVNDFFNKIVNKNNVRCLQHFYGPNHEHCFNRTLLRNSSGCEARRDEYRTEFTTALQRVDLFMGQFSEVLLTSISTFIKGDLTIANLGTSEGRFMQVVVSRSGPSTPHVNFLLDSHPVSPEVIVEHTLNQNGYTLVITGKKITKIPLNGLGCRHFQSCSQCLSAPPFVQCGWCHDKCVRSEECLSGTWTQQICLPAIYKVFPNSAPLEGGTRLTICGWDFGFRRNNKFDLKKTRVLLGNESCTLTLSESTMNTLKCTVGPAMNKHFNMSIIISNGHGTTQYSTFSYVDPVITSISPKYGPMAGGTLLTLTGNYLNSGNSRHISIGGKTCTLKSVSNSILECYTPAQTISTEFAVKLKIDLANRETSIFSYREDPIVYEIHPTKSFISGGSTITGVGKNLNSVSVPRMVINVHEAGRNFTVACQHRSNSEIICCTTPSLQQLNLQLPLKTKAFFMLDGILSKYFDLIYVHNPVFKPFEKPVMISMGNENVLEIKGNDIDPEAVKGEVLKVGNKSCENIHLHSEAVLCTVPNDLLKLNSELNIEWKQAISSTVLGKVIVQPDQNFT
notes: extracellular domain; Bought protein; the construct is not described; not shown: Fc part of the bought fusion protein, not described

Experiments:
[1] = target: B3; assay: solution binding assay, protein A bead pull-down, blot probed with HisProbe
Experimental: (§1) Recombinant human NGL-1-Fc (a-c), human Netrin-G1-Fc (d-f) and human DCC-Fc (g-i) were used to label COS7 cells expressing human NGL-1 (a, d, g), human Netrin-G1 (b, e, h), chicken Netrin-1 (c, f, i). Specific binding of the transfected cells was evident for Netrin-G1-expressing cells labeled with NGL-1-Fc (b), for NGL-1-expressing cells labeled with Netrin-G 1-Fc (d), as well as for Netrin-1-expressing cells labeled with DCC-Fc (i). (j) The recombinant ECD-Fc fusion proteins (5 nM) indicated at the top (lanes 3-7) were incubated with human Netrin-G1-his (first row), chicken Netrin-1-his (second row) or human HGF protein (third row) in a solution binding assay. Complexes were pulled down by protein A-conjugated beads and probed with His-Probe (anti-His), antibodies to chicken netrin-1 and monoclonal antibodies to human HGF, as indicated. Direct and specific binding of NGL-1-Fc and netrin-G1-His (50 kDa) is shown in the first row. The netrin-1-His protein (75-85 kDa) binds strongly to DCC-Fc and Unc5-Fc (lanes 3 and 4, second row), extremely weakly to NGL-1-Fc (lane 5, second row), and not at all to human cMet-Fc (lane 6). HGF binds to cMet-Fc (lane 6, third row). Lane 1, directly loaded netrin-G1-His; lane 2, directly loaded netrin-1-His; lane 7, directly loaded HGF.
(§2) The question remained whether Netrin-G1 and NGL-1 directly interact with each other. […]

[2] = target: B2; assay: solid phase binding assay, Netrin-G1-his coated wells, serial dilution of NGL-1-Fc, saturation curve and Scatchard analysis
Experimental: (§3) The binding affinity of NGL-1 and Netrin-G1 was then evaluated by a solid phase binding assay. Crude NetrinG-his protein (1 μg/ml) was coated in microtiter wells and non-specific binding sites saturated with 0.5% BSA. Purified NGL-1-Fc protein was serially diluted and added to the coated wells for 1 hour. Signals were detected with the biotinylated anti-human IgGFc antibody, horseradish peroxidase-conjugated strepavidin and a chromogenic substrate TMB (Kirkgaard and Perry Lab). The reactions were terminated with phosphoric acid and absorbance at 450 nm was measured. Non-specific binding was determined in parallel by omitting the microtiter well coating or by incubating the wells with the irrelevant cMet-Fc fusion protein, and dissociation constants were determined using saturation curves and Scatchard analysis (FIG. 2a). […] Cell 87, 175-185. (1996)].

[3] = target: T1, DCC expressed on COS cells (human, UniProt P43146 26-1447); assay: cell surface binding assay on transfected COS7 cells, fluorescence microscopy (data not shown)
T1 construct: whole, on cells
Experimental: (§4) The resultant fusion proteins were expressed and used in binding assays over a panel of ˜400 putative cell surface transmembrane or GPI-anchored cell surface human proteins that were transiently expressed in COS7 cells. Purified ECD-Fc fusion proteins (0.5 μg/ml) or the crude baculovirus lysates were added to transiently transfected COS7 cells for 1-2 hours at room temperature. After 3 rinses with cold phosphate buffered saline (PBS), the bound protein was cross-linked to the cell surface with 4% paraformaldehyde. The bound Fc fusion protein was detected by biotinylated anti-human IgGFc and R-phycoerythrin-conjugated streptavidin (Jackson Immunoresearch). Cell surface staining was visualized by fluorescent microscopy and images were taken with the Penguin 800CL digital camera system (Pixera).
(§5) Although the NGL-1 and Netrin-G1 interaction appeared to be specific within the context of the screen, the classical Netrins and their known receptors, DCC and Unc5, were not included in the screen. Thus whether NGL-1 also interacts with Netrin-1 and its receptors was determined. Using the same cell surface binding assay, NGL-1, Netrin-G1, or Netrin-1 were expressed in COS7 cells (rows in FIG. 1a-i) and their ability to bind the IgG Fe fusion protein of NGL-1, Netrin-G1, or DCC (columns in FIG. 1a-i) was determined. […]

[4] = target: T2, human NGL-1 expressed on COS7 cells (human, UniProt Q9HCJ2 43-640); assay: cell surface binding assay on transfected COS7 cells, fluorescence microscopy
T2 construct: also called PRO331; Netrin-G1 Ligand
T2 sequence: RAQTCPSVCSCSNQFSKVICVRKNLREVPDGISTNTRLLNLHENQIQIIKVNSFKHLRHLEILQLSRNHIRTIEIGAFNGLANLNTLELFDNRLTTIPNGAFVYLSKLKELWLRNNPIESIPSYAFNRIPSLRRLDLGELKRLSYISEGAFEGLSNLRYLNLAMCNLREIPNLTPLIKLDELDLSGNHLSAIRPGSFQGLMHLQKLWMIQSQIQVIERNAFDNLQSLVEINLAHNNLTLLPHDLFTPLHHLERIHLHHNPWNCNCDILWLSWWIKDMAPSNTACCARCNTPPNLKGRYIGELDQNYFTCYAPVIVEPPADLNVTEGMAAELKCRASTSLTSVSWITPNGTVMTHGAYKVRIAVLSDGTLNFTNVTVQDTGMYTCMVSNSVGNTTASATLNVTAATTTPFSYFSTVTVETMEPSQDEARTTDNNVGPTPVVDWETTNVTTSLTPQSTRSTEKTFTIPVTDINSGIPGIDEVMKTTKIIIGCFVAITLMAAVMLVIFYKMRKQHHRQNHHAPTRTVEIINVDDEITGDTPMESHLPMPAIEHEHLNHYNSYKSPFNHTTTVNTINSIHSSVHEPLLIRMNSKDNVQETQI
Experimental: as §4, §5

[5] = target: B1; assay: solid phase binding assay: Netrin-G1-his coated in microtiter wells, NGL-1-Fc in solution, OD450; specific binding = total minus cMet-Fc binding
Experimental: as §3

human HGF protein = target: T3, human HGF protein (human, UniProt P14210 32-728, limits assumed); assay: solution binding assay, pull-down with protein A beads, blot probed with anti-HGF (panel j)
T3 construct: also called hepatocyte growth factor
Experimental: as §1, §2

[6] = target: recombinant 6xHis-tagged chick Netrin-1 protein (R&D Systems) (chicken, UniProt Q90922 26-606); assay: solution binding assay, protein A bead pull-down, blot probed with anti-chicken Netrin-1
Experimental: as §1, §2

T3 sequence (P14210 32-728 limits assumed): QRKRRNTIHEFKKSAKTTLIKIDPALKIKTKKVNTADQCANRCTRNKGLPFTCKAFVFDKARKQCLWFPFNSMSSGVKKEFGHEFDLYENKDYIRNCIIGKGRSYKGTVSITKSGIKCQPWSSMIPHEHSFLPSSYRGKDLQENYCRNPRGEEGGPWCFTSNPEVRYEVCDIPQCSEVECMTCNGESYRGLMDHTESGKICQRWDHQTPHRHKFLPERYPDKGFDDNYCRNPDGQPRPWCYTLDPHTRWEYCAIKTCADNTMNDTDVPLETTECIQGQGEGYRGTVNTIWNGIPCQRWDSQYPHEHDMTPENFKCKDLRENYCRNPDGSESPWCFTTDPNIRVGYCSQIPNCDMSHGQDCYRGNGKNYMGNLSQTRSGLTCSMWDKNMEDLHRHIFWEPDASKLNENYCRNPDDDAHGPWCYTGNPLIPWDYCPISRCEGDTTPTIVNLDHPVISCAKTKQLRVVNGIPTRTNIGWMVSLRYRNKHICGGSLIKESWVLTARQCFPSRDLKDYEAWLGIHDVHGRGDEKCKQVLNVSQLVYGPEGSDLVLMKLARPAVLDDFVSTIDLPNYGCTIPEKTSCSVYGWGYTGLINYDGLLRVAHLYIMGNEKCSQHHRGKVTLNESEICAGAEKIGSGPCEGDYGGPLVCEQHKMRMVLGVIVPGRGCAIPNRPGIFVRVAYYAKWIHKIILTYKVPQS
T1 sequence (P43146 26-1447): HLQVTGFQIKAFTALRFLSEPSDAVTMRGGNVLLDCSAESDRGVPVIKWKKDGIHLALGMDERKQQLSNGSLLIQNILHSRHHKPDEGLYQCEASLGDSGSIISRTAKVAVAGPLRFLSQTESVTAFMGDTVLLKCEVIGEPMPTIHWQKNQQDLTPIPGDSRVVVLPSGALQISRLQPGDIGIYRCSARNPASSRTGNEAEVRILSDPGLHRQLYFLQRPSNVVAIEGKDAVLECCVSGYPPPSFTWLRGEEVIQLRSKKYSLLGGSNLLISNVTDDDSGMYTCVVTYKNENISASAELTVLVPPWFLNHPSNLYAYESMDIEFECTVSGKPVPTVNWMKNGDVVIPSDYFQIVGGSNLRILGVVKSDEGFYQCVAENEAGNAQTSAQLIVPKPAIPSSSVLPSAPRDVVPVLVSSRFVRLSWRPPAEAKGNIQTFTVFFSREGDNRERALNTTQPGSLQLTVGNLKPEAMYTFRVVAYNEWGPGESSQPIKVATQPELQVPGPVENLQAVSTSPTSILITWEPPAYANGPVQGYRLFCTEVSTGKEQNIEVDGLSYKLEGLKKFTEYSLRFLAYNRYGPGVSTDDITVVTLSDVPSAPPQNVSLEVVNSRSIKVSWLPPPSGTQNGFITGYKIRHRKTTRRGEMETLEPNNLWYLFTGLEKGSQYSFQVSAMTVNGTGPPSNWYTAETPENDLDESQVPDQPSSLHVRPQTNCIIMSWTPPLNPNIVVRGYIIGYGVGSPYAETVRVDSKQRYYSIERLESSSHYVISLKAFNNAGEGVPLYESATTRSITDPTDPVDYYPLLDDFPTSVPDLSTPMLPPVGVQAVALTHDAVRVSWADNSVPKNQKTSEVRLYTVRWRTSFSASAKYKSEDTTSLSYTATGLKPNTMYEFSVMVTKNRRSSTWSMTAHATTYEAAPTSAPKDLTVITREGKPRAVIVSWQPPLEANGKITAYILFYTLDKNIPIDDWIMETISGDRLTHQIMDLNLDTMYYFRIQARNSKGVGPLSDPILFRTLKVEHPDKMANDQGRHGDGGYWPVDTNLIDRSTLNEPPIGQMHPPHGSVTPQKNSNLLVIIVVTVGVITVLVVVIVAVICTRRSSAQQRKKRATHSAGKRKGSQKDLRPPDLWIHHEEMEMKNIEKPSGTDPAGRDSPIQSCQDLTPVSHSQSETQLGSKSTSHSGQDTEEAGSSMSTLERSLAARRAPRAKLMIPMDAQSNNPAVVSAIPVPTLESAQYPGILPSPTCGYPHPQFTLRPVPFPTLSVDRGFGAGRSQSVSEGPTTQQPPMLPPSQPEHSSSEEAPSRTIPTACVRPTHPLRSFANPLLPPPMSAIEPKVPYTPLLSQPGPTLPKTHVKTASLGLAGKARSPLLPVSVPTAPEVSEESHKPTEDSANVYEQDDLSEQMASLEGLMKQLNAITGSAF

Binder: B1
binding result [1]: no binding
Kd [2]: 1.6 nM

Binder: B2
binding result [3]: no binding
binding result [4]: no binding
EC50 (read off the curve) [5]: ~2 nM
binding result (human HGF protein): no binding (tested: 5 nM)

Binder: B3
binding result [6]: no binding
